In the nanobody polyreactivity screen of Harvey et al. (2022):

test: yeast display, Sf9 membrane polyspecificity reagent, FACS + sequencing; frameworks hold sequencing errors
Method in brief: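 Polyreactivity labels are assigned by the sorting gate from which each nanobody was recovered. The gates were low and high (top ~1%), set on anti-HA fluorescence for expression and streptavidin fluorescence for reagent binding. Before sorting, galactose-induced (36–48 hours) yeast display cells were stained for 1 hour at 4 °C with 10% biotinylated, detergent-solubilized Sf9 membrane reagent.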

Sequence	polyreactivity (PSR sort gate)
QDQLVESGGGLVQAGGSLRLSCAASGLILHKYAMGWYRQAPGKERELVASINSGANTNYADSVKGRFTISRDNAKNTLYLHLNSLKPEDTAVYYCAADWQQLSYVWRSQRRYNYWGQGTQVTVSS	low polyreactivity
QDQLVESGGGLVQAGGSLRLSCAASGLTFPEYAMGWYRQAPGKERELVAAITWSGATTYYADSVKGRFTISRDNAKNTVYLQMNSLKPEDTAVYYCAAEYTVYNTALPGYYFTYYYWGQGTQVTVSS	high polyreactivity
QDQLVESGGGLVQAGGSLRLSCAASGLTFYTYAMGWYRPAPGKERELVAAIRWRGGRTYYADSVKGRFTISRDNAKNTVYLLMNSLKPEDTAVYYCAADYSTLYKYDYWGQGTQVTVSS	low polyreactivity
QDQLVESGGGLVQAGGSLRLSCAASGNTFRYYALGGYRQAPGKERELVATITSGGRTYYADSVKGRFTISRDNAKNTVYLQMNSLKPEDTAVHYGAAVGLDYFVGEYDYWGQGTQVTVSS	low polyreactivity
QDQLVESGGGLVQAGGSLRLSCAASGNTFVSNAMGWYRQAPGKERELVAAIDSGGSTNYADSVKGRFTISRDNAKYTVYLQMNSLKPEDTAVYYCNRTSVYYYYWGQGTQVTVSS	low polyreactivity
QDQLVESGGGLVQAGGSLRLSCAASGPIFRSYAMGWYRQAPGKEMELVAAISRSGGSTYYADSVKGRFSISRDNAKNSVYLHMNSLKPEDSAVYYCAADYILLGGRRKFDSWGQGTQVTVSS	low polyreactivity
QDQLVESGGGLVQAGGSLRLSCAASGRIFAGYAMGWYRQAPGKERELVATISSGGSTYYADSVKGRFTISRDNAKNTVYLQMHSLKPEDTAVYYCAAEYGTRQYSSYYKLFNYWGQGTQVTVSS	low polyreactivity
QDQLVESGGGLVQAGGSLRLSCAASGRIFGSYAMGWYRQAPGKERELVAAISIGGRTYYADSVKGRFTISRDNAKNTVYLQMNSLKPEDTAVYYCNAPAYYWRHYVYDSGYDYWGQGTQVTVSS	low polyreactivity
QDQLVESGGGLVQAGGSLRLSCAASGRIFGYYTMGWSRPAPGKERELVAGITRRGGRTYYADSVKGRFTISRDNAKNTVYLQMNSLKPEDTGVYYCAVRSGVNFYYWGQGTQVTVSS	high polyreactivity
QDQLVESGGGLVQAGGSLRLSCAASGRIFGYYVMGWYRQAPGKERELVAAISGSGGSTYYADSVKGRFTISRDNAKNTVYLQMNSLKPEDTAVYYCNKRATRSRRRGYWGQGTQVTVSS	low polyreactivity
QDQLVESGGGLVQAGGSLRLSCAASGRIFHGNAMGWYRQARGKEWELVAAISRRGGSTYSADSVKGRFTISRDNAKNTVYLQMNSLKPEDTAVYYCAAVWPYGSRGAPMDYWGQGTQVTVSS	high polyreactivity
QDQLVESGGGLVQAGGSLRLSCAASGRIFPYYAMGRYRQAPGKERELVASISGSGGRTYYADSVKGRFTISRDNAKNTVSLQMNSLKPEDTAVYYCAAYWYKVPGKYGYWGQGTQVTVSS	high polyreactivity
QDQLVESGGGLVQAGGSLRLSCAASGRIFQGYAMGWYRQAPGKERELVAAITLSGGSTYYADSVKGRFTISRDNAKNTVYLQMNSLKPEDTAVYYCNAYYPDEPSLYDYWGQGTQVTVSS	low polyreactivity
QDQLVESGGGLVQAGGSLRLSCAASGRIFRGNAMGWYRQAPGKEREMVAAISRRSGSTYYADSVKGRFTISRDNAKNTVYLQMNSLKPEDTAVYYCAATSSLGDFRYDYWGQVTQVTVSS	high polyreactivity
QDQLVESGGGLVQAGGSLRLSCAASGRIFRGYAMGWYRQAHGKERELVAVISYSGTRTYYADSVKGRFTISRDNAKNTVYIQMNSLKPEDTAVYYCNARANGFKDGYWGEGTQVTVSS	high polyreactivity
QDQLVESGGGLVQAGGSLRLSCAASGRIFRSYAMGWYRQAPGKERELVAAINTGGITYYADSVKGRFTISRDNAKNTVYLQMNSLKPEDTAVYYCNTYILSRMNYWGQCTQVTVSS	high polyreactivity
QDQLVESGGGLVQAGGSLRLSCAASGRIFSRNAMGWYRQAPGKERELVAAITWRGGSTYYADSVKGRFTISRDNAKNTVYLQMTSLKPEDTAVYYCNRDYRQYGYAYSGRYYWGLGTQVTVSS	high polyreactivity
QDQLVESGGGLVQAGGSLRLSCAASGRIFVPYSKGWYRQATGKERELVAAISLRGGTTYYSDSVKGRFTISRDNAKNTVYLQMNSLKPEDTAVYYCAARGYVSVWRPYHWFVAGDYWGQGTQVTVSS	high polyreactivity
QDQLVESGGGLVQAGGSLRLSCAASGRIFYPNAMGWYRQAPGKERELVASISRGGPTSYADSVKGRFTISRDNAKNTVYLQMNSLKPEDTAVYYCAADVAWYRYRSYYWGQGTQVTVSS	high polyreactivity
QDQLVESGGGLVQAGGSLRLSCAASGRLFDLNAMGWNRQAPGTERELVAVISWSGGITYYADSVKGRFTSSRDNAKNTVYLLMNSLKPEDTAVYYCNADTDFDPYYEFDYWGQGTQVTVSS	low polyreactivity
QDQLVESGGGLVQAGGSLRLSCAASGRTFAFKSMGWYRQAPGKERELVAAIRWSGGTTYYADSVKGRFTISRDNANNTVYLQMNSLKPEDTAVYYCATGKWVYFRYNYWGLGTQVTVSS	high polyreactivity
QDQLVESGGGLVQAGGSLRLSCAASGRTFRKYAMGWYRPAPGKEREFVAAITSSGGSTYYADSVKGRYTISRDNAKNTVYLQMNSLKPEDTAVYYCAAARTSTGTYRYEYWGQGTQVTVSS	high polyreactivity
QDQLVESGGGLVQAGGSLRLSCAASGRTFRYYAMGWYRQAPRKERELVAAISSGGSTNYADSVKARFTISRDNAKNTVYLQMNRLKPEDTGVYYCAVQAWYMTYSYPYSKGYYWGQGTQLTVSS	high polyreactivity
QDQLVESGGGLVQAGGSLRLSCAASGRTFSINAMGWYRQAPGKERELVASISSRGTRTNYADSVKGRFTISRDNAKNTVYLQMNSLKPEDTGVYYCAADRYYPYYSAWREYEYWGQGTQVTVSS	high polyreactivity
QDQLVESGGGLVQAGGSLRLSCAASGRTFYDNAMGWYRQAPGKERELVAAITWRGGGTYYADSVKGRFTISRDNAKNTVYLQMNSLKPEDTAVYYCAADSSGTGFYAYTDGEEKYSWGQGTQVTVSS	high polyreactivity
QDQLVESGGGLVQAGGSLRLSCAASGRTLGKNAMGWYRQAPGTERELVAAISSSGGSTYYADSVKGRFTISRDNAKNTVYLQMNSLKPEDTAVYYCAAKYFRKYSQIGPDMYYWGQGTQVTVSS	high polyreactivity
QDQLVESGGGLVQAGGSLRLSCAASGRTLYLYAMGWYRQAPGKERELVAGISWSGTSTYYADSVKGRFTISRYNAKNTVYLQMNSLKPEDTAVYYCAADSYPAYLGFVGFDYWGQGTQVTVSS	low polyreactivity
QDQLVESGGGLVQAGGSLRLSCAASGSIFAGYVMGWYRQAPGKERELVASISSGTGTFYADSVKGRFTISRDNAKNTVYLQMNSLKPEDTAVYYCAAESYRTVQFIRSRWRYTYDYWGQGTQVTVSS	low polyreactivity
QDQLVESGGGLVQAGGSLRLSCAASGSIFGAYARGWYRQAPGKERELVAAISGSGTSTYYADSVKGRFTISRDNAKNTVYLQMNSLKPEDTAVYYCAADGTYFYIYLGDRFDYWGQGTQVTVSS	low polyreactivity
QDQLVESGGGLVQAGGSLRLSCAASGSIFNPYAMGWYRQAPGKERELVAAITSGGYTYADSVKGRFTISRDNAKNTVYLQMNSLKPEDTAVYYCAADRSYVYAGADMYYWGQGTQVTVSS	low polyreactivity
